Assay [1] addresses T1, Human C3b, site-specifically biotinylated at its thioester cysteine (human, UniProt P01024 23-667; P01024 749-1663). The experiment in a line: SPR. For orientation: Surface plasmon resonance follows binding to a sensor surface in real time, without labels.
For assay [2], the target named is T1, Human C3b, site-specifically …. Briefly: SPR. This is another data set of the same source.

As a reminder, the Kd is a measure of binding affinity in units of concentration. A high value points to a looser complex. By koff is commonly meant the rate constant with which the complex falls apart. A low value points to slow dissociation.

T1 sequence (P01024 23-667, chain 1 of 2): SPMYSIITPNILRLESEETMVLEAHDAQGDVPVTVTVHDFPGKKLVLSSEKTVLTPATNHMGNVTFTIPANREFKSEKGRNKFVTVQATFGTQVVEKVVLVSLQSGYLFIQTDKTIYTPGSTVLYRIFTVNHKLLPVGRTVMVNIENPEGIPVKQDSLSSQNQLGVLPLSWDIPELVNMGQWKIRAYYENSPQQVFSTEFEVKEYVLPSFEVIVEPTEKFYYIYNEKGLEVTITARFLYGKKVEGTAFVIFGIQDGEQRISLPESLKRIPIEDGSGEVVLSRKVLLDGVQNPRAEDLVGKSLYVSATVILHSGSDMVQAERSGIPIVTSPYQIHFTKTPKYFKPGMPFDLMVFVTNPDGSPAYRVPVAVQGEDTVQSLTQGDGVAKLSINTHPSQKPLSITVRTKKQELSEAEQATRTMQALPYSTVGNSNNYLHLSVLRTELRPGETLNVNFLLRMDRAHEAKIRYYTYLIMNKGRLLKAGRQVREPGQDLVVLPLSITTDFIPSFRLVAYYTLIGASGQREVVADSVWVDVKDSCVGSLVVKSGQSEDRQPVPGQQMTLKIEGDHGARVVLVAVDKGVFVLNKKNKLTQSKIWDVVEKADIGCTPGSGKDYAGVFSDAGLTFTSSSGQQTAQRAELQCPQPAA
T1 sequence (P01024 749-1663, chain 2 of 2): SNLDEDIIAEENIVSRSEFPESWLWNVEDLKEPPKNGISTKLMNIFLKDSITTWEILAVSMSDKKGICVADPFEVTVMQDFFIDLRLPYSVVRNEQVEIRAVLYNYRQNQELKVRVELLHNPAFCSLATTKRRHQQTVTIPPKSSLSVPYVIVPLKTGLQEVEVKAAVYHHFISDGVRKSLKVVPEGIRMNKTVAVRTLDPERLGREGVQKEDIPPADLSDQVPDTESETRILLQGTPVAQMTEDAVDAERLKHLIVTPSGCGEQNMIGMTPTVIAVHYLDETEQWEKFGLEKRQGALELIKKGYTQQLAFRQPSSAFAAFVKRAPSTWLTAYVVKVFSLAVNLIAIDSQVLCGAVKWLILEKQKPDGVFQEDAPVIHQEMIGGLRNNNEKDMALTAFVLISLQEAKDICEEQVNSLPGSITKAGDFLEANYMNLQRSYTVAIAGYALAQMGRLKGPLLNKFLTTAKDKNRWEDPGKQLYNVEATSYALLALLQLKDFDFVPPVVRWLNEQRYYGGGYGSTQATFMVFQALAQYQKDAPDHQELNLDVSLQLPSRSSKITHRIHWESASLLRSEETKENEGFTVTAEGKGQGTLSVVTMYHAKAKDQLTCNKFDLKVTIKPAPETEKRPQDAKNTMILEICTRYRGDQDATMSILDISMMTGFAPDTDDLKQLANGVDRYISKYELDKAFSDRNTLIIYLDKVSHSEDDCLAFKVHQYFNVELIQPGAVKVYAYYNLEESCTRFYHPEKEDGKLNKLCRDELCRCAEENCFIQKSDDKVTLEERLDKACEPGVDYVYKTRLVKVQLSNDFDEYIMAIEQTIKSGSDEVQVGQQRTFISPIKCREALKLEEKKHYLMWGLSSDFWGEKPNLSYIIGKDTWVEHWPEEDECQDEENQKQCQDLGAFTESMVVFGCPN

B1: C-terminal domain of the Staphylococcus aureus immune evasion protein Efb (domain or fragment)
chain: TDATIKKEQKLIQAQNLVREFEKTHTVSAHRKAQKAVNLVSFEYKVKKMVLQERIDNVLKQGLV
In the case of B1, in assay [1], the Kd turned out to be 0.11 nM, the “half-life of the complex” value was approximately 1 h and the koff worked out at 0.000187 s⁻¹.

B2: CCP domains 19-20 of human Factor H (domain or fragment)
chain: GKCGPPPPIDNGDITSFPLSVYAPASSVEYQCQNLYQLEGNKRITCRNGQWSEPPKCLHPCVISREIMENYNIALRWTAKQKLYSRTGESVEFVCKRGYRLSSRSHTLRTTCWDGKLEYPTCAKR
Consider B2, for which, in assay [2], the binding result was “binds”.

Values taken from publication PMC9842190 (Seminars in immunology, 2022).
